Source: publication PMC5349785 (Molecular Biology of the Cell, 2017)
Each block holds one binder with its values, some of them ahead of it.

What was measured:
[1] = biological target: T1, Vps35 with C-terminal TAP tag (S. cerevisiae, UniProt P34110 1-944); experiment: tandem affinity purification
T1 sequence: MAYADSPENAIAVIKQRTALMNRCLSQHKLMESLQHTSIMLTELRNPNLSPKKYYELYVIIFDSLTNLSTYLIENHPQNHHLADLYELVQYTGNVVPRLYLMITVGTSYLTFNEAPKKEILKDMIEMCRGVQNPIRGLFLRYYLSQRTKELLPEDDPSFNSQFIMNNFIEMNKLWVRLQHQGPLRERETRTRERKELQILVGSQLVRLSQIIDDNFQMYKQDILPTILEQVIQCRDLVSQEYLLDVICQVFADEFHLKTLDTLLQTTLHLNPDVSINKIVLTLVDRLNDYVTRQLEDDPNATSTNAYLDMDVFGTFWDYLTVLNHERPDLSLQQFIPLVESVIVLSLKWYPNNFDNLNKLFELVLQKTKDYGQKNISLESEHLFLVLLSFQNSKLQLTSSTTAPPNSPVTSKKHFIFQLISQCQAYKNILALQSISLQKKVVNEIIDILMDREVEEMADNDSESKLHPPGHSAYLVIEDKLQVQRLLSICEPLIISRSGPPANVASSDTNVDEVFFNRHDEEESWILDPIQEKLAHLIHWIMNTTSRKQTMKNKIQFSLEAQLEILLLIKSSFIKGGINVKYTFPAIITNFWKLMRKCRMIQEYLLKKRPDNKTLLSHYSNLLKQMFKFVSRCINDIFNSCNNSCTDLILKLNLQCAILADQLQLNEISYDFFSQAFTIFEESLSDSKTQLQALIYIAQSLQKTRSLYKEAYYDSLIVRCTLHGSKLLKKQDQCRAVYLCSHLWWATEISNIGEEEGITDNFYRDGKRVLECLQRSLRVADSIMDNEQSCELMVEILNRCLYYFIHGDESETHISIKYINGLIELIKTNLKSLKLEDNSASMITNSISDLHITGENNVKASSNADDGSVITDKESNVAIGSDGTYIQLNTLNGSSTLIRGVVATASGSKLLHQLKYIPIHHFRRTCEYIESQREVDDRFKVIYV

[2] = biological target: T2, CSC with GFP-tagged Vps29 (CSC-GFP) (S. cerevisiae, UniProt P34110;P40335;P38759); experiment: pull-down
[3] = biological target: T2, CSC with GFP-tagged Vps29 (CSC-GFP); experiment: recruitment to giant unilamellar vesicles

B1: Vps26 (natural protein)
chain: MSIFFKPPIDIEILFDNEESRKHVDIATRSSNSSYKSMKESLPVYEDGESLGGIVTLRVRDSKKVDHLGIKVSVIGSIDMLKSHGSGNSSSKKVTSSTSSSSSNGSVDVRKNSVDQFLCQSYDLCPAGELQHSQSFPFLFRDLSKRYESYKGKNVDVAYYVKVTVMRKSTDISKIKRFWVYLYNSVTTAPNTLSANETKATTNDIAGGNYAADNASDNTQTKSTQGEAADVNQVLPISHSNNEPKPVRLDIGIENCLHIEFEYAKSQYSLKEVIVGRIYFLLTRLRIKHMELSLITRESSGLQTSNVMTDSTAIRYEIMDGSSVKGETIPIRLFLSGYDLTPNMSCNYFNVKNYLSLVIIDEDGRRYFKQSEITLYRTR
binding result [1]: binds

B2: SNX-BAR complex with GFP-tagged Vps17 (SNX-BAR-GFP) (complex)
chain 1: MDYEDNLEAPVWDELNHEGDKTQSLVSNSIESIGQISTNEERKDNELLETTASFADKIDLDSAPEWKDPGLSVAGNPQLEEHDNSKADDLINSLAPEQDPIADLKNSTTQFIATRESGGALFTGNANSPLVFDDTIYDANTSPNTSKSISGRRSGKPRILFDSARAQRNSKRNHSLKAKRTTASDDTIKTPFTDPLKKAEKENEFVEEPLDDRNERRENNEGKFTASVEKNILEQVDRPLYNLPQTGANISSPAEVEENSEKFGKTKIGSKVPPTEKAVAFKVEVKDPVKVGELTSIHVEYTVISESSLLELKYAQVSRRYRDFRWLYRQLQNNHWGKVIPPPPEKQSVGSFKENFIENRRFQMESMLKKICQDPVLQKDKDFLLFLTSDDFSSESKKRAFLTGSGAINDSNDLSEVRISEIQLLGAEDAAEVLKNGGIDAESHKGFMSISFSSLPKYNEADEFFIEKKQKIDELEDNLKKLSKSLEMVDTSRNTLAASTEEFSSMVETLASLNVSEPNSELLNNFADVHKSIKSSLERSSLQETLTMGVMLDDYIRSLASVKAIFNQRSKLGYFLVVIENDMNKKHSQLGKLGQNIHSEKFREMRKEFQTLERRYNLTKKQWQAVGDKIKDEFQGFSTDKIREFRNGMEISLEAAIESQKECIELWETFYQTNL
chain 2: MTSAVPYDPYDDLDNNPFAEPQEEDSEPAATTTDGSSSMSEERVGTEQTAASVQDNGTANNIQNGLGEEGNATRSKTSNEHNENQQPSQPSERVILPERSDEKKKYTLLAKVTGLERFGSATGKKENPTIIFDCSTNLPTFRKQQYKNVKKSYEEFHQLFKYLNVAIQESFVPTLPSAYTTFGINSEEDRMKVTRNFQLWFNRLSQDPLIIRNEEVAFFIESDFNTYTPINKSKSLASGLKRKTLKQLAPPYDEITELAEFRPLVKSIYVVSQSLQEKLLRVSRNRKMMVQEENAFGQDFVNLDEHNKLYRRYGKILTAVGDIDSIIATMDMATLYDGLEWIVRDAYAVKEALTNRHFIMRNLVQAQQNSKAKQEQARRFRSRRDINPMKIDEALRQLKAAAKNEQVLTLKLQRITSNMIIERKQWISWYEEWIRSSIKEFTLRKIEYERKKLTLLERVRSDIRKADENGGLSRLGRHAVSNNNSDTSQTLKGDSWTGESNRKSQIPINKIAHTEFDDELFTEDDGYNSQDSDTTSLNARHAASLLGMSTK
binding result [2]: binds

B3: SNX-BAR complex (Vps5-Vps17 heterodimer) (complex)
chain 1: B2 chain 1
chain 2: B2 chain 2
binding result [3]: binds

More lines, now with the values ahead:

binding result [1]: binds
B4: Vps29 (natural protein)
chain: MLLLALSDAHIPDRATDLPVKFKKLLSVPDKISQVALLGNSTKSYDFLKFVNQISNNITIVRGEFDNGHLPSTKKDKASDNSRPMEEIPMNSIIRQGALKIGCCSGYTVVPKNDPLSLLALARQLDVDILLWGGTHNVEAYTLEGKFFVNPGSCTGAFNTDWPIVFDVEDSDEAVTSEVDKPTKENQSEDDDAKGGSTGKEQPGSYTPKEGTAGERENENESNVKPENQFKEDEVDMSDSDINGSNSPSFCLLDIQGNTCTLYIYLYVNGEVKVDKVVYEKE

binding result [2]: binds
B5: N-terminal fragment of Vps5 (residues 1-280) (domain or fragment)
chain: MDYEDNLEAPVWDELNHEGDKTQSLVSNSIESIGQISTNEERKDNELLETTASFADKIDLDSAPEWKDPGLSVAGNPQLEEHDNSKADDLINSLAPEQDPIADLKNSTTQFIATRESGGALFTGNANSPLVFDDTIYDANTSPNTSKSISGRRSGKPRILFDSARAQRNSKRNHSLKAKRTTASDDTIKTPFTDPLKKAEKENEFVEEPLDDRNERRENNEGKFTASVEKNILEQVDRPLYNLPQTGANISSPAEVEENSEKFGKTKIGSKVPPTEKAVA

binding result [3]: binds
B6: cytosolic domain of Vps10 (residues 1415-1579), His-tagged (domain or fragment)
chain: YDRGIRRNGGFARFGEIRLGDDGLIENNNTDRVVNNIVKSGFYVFSNIGSLLQHTKTNIAHAISKIRGRFGNRTGPSYSSLIHDQFLDEADDLLAGHDEDANDLSSFMDQGSNFEIEEDDVPTLEEEHTSYTDQPTTTDVPDTLPEGNEENIDRPDSTAPSNENQ
modifications: Cy5 label (Cyc-5 amine derivative) in Figures 3 and 4

binding result [3]: binds
B7: fluorescently labeled Ypt7 without His tag (natural protein)
chain: MSSRKKNILKVIILGDSGVGKTSLMHRYVNDKYSQQYKATIGADFLTKEVTVDGDKVATMQVWDTAGQERFQSLGVAFYRGADCCVLVYDVTNASSFENIKSWRDEFLVHANVNSPETFPFVILGNKIDAEESKKIVSEKSAQELAKSLGDIPLFLTSAKNAINVDTAFEEIARSALQQNQADTEAFEDDYNDAINIRLDGENNSCSC
modifications: fluorescent label: ATTO (legend of Figure 5); DY-647 maleimide derivative (methods)
